Source: patent US20260152567A1 (CSPC MEGALITH BIOPHARMACEUTICAL, published 2026)

T1: recombinant human CD73 protein (human, UniProt P21589 27-547)
T1 construct: Bought soluble protein; The background says that CD73 forms a homodimer; also called soluble CD73; free CD73 protein
T1 sequence (looked up): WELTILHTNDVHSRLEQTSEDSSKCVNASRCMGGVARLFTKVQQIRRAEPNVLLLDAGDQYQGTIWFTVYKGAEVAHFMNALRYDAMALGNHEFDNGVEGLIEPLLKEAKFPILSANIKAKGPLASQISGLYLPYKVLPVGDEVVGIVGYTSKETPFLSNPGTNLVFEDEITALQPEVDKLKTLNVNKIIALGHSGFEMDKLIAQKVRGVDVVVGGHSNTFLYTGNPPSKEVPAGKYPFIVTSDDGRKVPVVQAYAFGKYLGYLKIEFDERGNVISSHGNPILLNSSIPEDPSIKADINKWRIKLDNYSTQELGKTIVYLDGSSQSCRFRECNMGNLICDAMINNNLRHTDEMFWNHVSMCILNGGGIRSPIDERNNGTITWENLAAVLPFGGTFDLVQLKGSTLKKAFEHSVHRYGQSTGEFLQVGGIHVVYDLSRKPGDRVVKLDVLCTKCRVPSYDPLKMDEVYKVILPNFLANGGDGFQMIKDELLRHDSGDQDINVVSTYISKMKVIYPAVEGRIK

T2: human CD73 on the cell surface (MDA-MB-231 and SKOV3 tumor cells) (human, UniProt P21589 27-549)
T2 construct: whole, on cells; also called cell surface CD73; CD73 on the surface of human tumor cells
T2 sequence (looked up): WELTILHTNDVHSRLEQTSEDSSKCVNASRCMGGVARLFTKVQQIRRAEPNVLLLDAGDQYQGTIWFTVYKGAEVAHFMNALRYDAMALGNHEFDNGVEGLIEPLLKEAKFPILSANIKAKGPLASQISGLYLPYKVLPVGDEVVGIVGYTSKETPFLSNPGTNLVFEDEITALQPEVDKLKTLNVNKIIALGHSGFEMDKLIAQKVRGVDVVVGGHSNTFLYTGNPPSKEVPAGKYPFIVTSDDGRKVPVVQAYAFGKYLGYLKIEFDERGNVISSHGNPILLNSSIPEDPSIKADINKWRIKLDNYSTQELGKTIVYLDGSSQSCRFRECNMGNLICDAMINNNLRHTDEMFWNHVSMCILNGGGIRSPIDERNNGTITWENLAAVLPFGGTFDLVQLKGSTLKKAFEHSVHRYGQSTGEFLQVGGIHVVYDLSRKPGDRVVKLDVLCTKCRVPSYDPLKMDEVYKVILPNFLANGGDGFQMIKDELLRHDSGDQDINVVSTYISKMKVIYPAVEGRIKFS

T3: cynomolgus monkey CD73 protein (cynomolgus monkey, UniProt A0A2K5V5U7 27-547)
T3 construct: construct not described
T3 sequence: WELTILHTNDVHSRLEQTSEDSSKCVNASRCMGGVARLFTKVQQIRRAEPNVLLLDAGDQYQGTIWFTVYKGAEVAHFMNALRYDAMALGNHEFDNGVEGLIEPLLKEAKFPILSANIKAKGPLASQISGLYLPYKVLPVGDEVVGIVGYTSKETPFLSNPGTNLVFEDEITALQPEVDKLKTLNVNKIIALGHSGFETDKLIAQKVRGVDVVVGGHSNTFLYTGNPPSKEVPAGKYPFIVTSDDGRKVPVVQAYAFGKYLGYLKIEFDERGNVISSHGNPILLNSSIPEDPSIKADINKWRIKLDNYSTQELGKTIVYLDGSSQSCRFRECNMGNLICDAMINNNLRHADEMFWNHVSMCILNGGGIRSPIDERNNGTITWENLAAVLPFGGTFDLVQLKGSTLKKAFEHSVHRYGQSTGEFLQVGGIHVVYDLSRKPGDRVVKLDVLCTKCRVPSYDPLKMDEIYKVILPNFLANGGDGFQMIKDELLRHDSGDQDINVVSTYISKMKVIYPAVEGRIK


What was measured:
[1] = molecular target: T1, recombinant human CD73 protein; test: ELISA, plate coated with recombinant human CD73 at 1 µg/mL
Method: The obtained eukaryotic expression vectors were transiently transferred into HEK293 cells, and the cells were then cultured for 6 days. The culture supernatants were harvested and purified by a ProteinA column to obtain the target antibodies, which were named 7C3C2-hIgG1 and 1F2F9-hIgG1, respectively. The affinity of the antibodies for the recombinant human CD73 protein (as described in Example 1) was determined using ELISA method. A elisa plate was coated with the recombinant human CD73 protein at a concentration of 1 μg/mL and washed 3 times with a PBST buffer. Then, the plate was blocked with a PBS buffer containing 2% BSA at 37° C. for 2 h and washed 3 times with a PBST buffer. 5-fold gradient dilutions (0-133.3 nM) of the test antibodies were added, and the mixture was incubated at 37° C. for 2 h. The plate was further washed 3 times with a PBST buffer. A horseradish peroxidase-labeled secondary antibody was added, and the mixture was incubated at 37° C. for 1 h. The plate was then washed 3 times with a PBST buffer. Chromogenic reaction was performed, and the absorbance values were read after the reaction was terminated.

[2] = molecular target: T2, human CD73 on the cell surface …; test: flow cytometry on SK-OV-3 cells
Method: (§1) In this example, the exemplary antibodies of the present application were compared with anti-CD73 antibodies described in other patent applications. Antibodies MEDI9447 and Hu101-28 (with CDR sequences from PCT patent applications WO 2016/075099 and WO 2018/137598, respectively) were cloned into eukaryotic expression vectors containing the hIgG1-kappa constant region. The binding ability of the humanized antibodies Hab7C3C2.5 and Hab1F2F9.15 to cell surface CD73 was assessed using tumor cell lines MDA-MB-231 and SKOV3 which endogenously express human CD73 on the cell surface. The cells were seeded in a 96-well plate at a density of 2×10⁶ cells/mL, with 100 μL per well. 4-fold gradient dilutions (0-100 nM) of the antibodies were added, and the mixture was incubated at 4° C. for 1 h. A goat anti-human secondary antibody was added, and the mixture was incubated at 4° C. in the dark for 50 min for labeling. The fluorescence intensity of the cells was then measured by a flow cytometer.

[3] = molecular target: T2, human CD73 on the cell surface …; test: flow cytometry on MDA-MB-231 cells
Method: as §1

[4] = molecular target: T1, recombinant human CD73 protein; test: BLI (Fortebio), human CD73 on HIS1K biosensors, antibody as analyte
Method: The humanized antibody VH and VL were separately constructed into eukaryotic expression vectors containing the hIgG1-kappa constant region with L234A, L235A, P329A and P331S mutations (abbreviated as hIgG1 in the present application). The affinity of all humanized antibodies was assayed in this example. Human CD73 protein was immobilized onto HIS1K biosensors to achieve a binding response threshold of 0.3 nm. After a 120-second baseline step, the sensors were separately immersed in anti-CD73 antibody analytes diluted in a gradient with a 0.02% PBST buffer (each antibody was diluted in a 2-fold gradient with an initial concentration of 25 nM, resulting in 7 concentration gradients). The times for the ligand-analyte binding and dissociation were 120 s and 300 s, respectively. The data of the antigen-antibody affinity were calculated by regression according to the binding curves using an analysis software.

[5] = molecular target: T3, cynomolgus monkey CD73 protein; test: BLI (Fortebio), cynomolgus CD73 on HIS1K biosensors, antibody as analyte
Method: In this example, the cross-binding ability of the exemplary humanized anti-CD73 antibodies of the present application to cynomolgus monkey CD73 was assayed by a Fortebio experiment. The specific implementation steps included immobilizing the cynomolgus monkey CD73 protein onto HIS1K biosensors. […] The times for the ligand-analyte binding and dissociation were 120 s and 300 s, respectively. The data of the antigen-antibody affinity were calculated by regression according to the binding curves using an analysis software.

Binder	EC50 [1]	EC50 [2]	EC50 [3]	Kd [4]	koff [4]	kon [4]	Kd [5]	koff [5]	kon [5]
1F2F9-hIgG1 (antibody, V domains shown, Human-mouse chimeric antibody, expressed in HEK293, Protein A purified; also called 1F2F9 chimeric antibody) VH: QVQLQQPGTELVKPGASVKLSCKASGYTFTSYWMHWVKQRPGHGLEWIGNINPSNGGTKYNEKFKSKATLTVDKSSSTAYLQLSSLTSEDSAVYYCARRDYGSPSYWGQGTLVTVSA VL: DIKMTQSPSSIYASLGERVTITCKASQDINSYLTWFQQKVGKSPKTLIYRTNILLDGVPSRFSGSGSGQDYSLTISSLDYEDMGIYHCLQYHEFPVTFGAGTKLELKR	0.028 nM	–	–	–	–	–	–	–	–
MEDI9447 (antibody, V domains shown) VH: EVQLLESGGGLVQPGGSLRLSCAASGFTFSSYAYSWVRQAPGKGLEWVSAISGSGGRTYYADSVKGRFTISRDNSKNTLYLQMNSLRAEDTAVYYCARLGYGRVDEWGRGTLVTVSS VL: QSVLTQPPSASGTPGQRVTISCSGSLSNIGRNPVNWYQQLPGTAPKLLIYLDNLRLSGVPDRFSGSKSGTSASLAISGLQSEDEADYYCATWDDSHPGWTFGGGTKLTVLG	–	0.17 nM	0.49 nM	–	–	–	–	–	–
7C3C2-hIgG1 (antibody, V domains shown, Human-mouse chimeric antibody, expressed in HEK293, Protein A purified; also called 7C3C2 chimeric antibody) VH: QVQLQQSGPELVKPGASVKLSCKASGYTFTSYDINWVKQRPGQGLEWIGWIYPRDGFTKYNEKFKGKATLTVDTSSSTAYMELHSLTSEDSAVYFCARKEGYRGDWYFDVWGTGTTVTVSS VL: DIQMTQSPASLSASVGETVTITCRASGNVHNYLAWYQQKQGKSPQLLVYNAKTLADGVPSRFSGSGSGTQYSLKINSLQPEDFGSYYCQHFWSTPWTFGGGTELEIKR	0.017 nM	–	–	–	–	–	–	–	–
Hab1F2F9.12 (antibody, human IgG1, kappa, L234A L235A, V domains shown, Humanized 1F2F9; also called Huab1F2F9.12) VH: QVQLVQSGAEVKKPGASVKVSCKASGYTFTSYWMHWVRQAPGQRLEWMGNINPSNGGTKYNEKFQGRVTITVDTSASTAYMELSSLRSEDTAVYYCARRDYGSPSYWGQGTTVTVSS VL: DIQMTQSPSSLSASVGDRVTITCKASQDINSYLTWFQQKPGKAPKSLIYRTNILLDGVPSRFSGSGSGTDYTLTISSLQPEDFATYYCLQYHEFPVTFGGGTKLEIKR	–	–	–	0.72 nM	0.00133 s⁻¹	1.85e+06 M⁻¹ s⁻¹	0.681 nM	0.00152 s⁻¹	2.22e+06 M⁻¹ s⁻¹
Hab7C3C2.9 (antibody, human IgG1, kappa, L234A L235A, V domains shown, Humanized 7C3C2; also called Huab7C3C.9) VH: QVQLVQSGAEVKKPGASVKVSCKASGYTFTSYDINWVRQATGQGLEWMGWIYPRDGFTKYAQKFQGRVTITVNTSISTAYMELSSLRSEDTAVYYCARKEGYRGDWYFDVWGQGTTVTVSS VL: DIQMTQSPSSLSASVGDRVTITCRASGNVHNYLAWYQQKPGKAPKLLLYNAKTLASGVPSRFSGSGSGTDYTLTISSLQPEDFATYYCQHFWSTPWTFGGGTELEIKR	–	–	–	1.03 nM	0.00381 s⁻¹	3.7e+06 M⁻¹ s⁻¹	0.852 nM	0.00388 s⁻¹	4.56e+06 M⁻¹ s⁻¹
